Reference: patent US20170158755A1 (PROTHENA BIOSCIENCES, published 2017)

T1: human His-laminin-α4 (human, UniProt Q16363 833-1823, limits assumed)
T1 construct: Bought His-tagged recombinant protein (R & D Systems); also called Human LAMA4; human His-laminin-α4 (R & D Systems)
T1 sequence: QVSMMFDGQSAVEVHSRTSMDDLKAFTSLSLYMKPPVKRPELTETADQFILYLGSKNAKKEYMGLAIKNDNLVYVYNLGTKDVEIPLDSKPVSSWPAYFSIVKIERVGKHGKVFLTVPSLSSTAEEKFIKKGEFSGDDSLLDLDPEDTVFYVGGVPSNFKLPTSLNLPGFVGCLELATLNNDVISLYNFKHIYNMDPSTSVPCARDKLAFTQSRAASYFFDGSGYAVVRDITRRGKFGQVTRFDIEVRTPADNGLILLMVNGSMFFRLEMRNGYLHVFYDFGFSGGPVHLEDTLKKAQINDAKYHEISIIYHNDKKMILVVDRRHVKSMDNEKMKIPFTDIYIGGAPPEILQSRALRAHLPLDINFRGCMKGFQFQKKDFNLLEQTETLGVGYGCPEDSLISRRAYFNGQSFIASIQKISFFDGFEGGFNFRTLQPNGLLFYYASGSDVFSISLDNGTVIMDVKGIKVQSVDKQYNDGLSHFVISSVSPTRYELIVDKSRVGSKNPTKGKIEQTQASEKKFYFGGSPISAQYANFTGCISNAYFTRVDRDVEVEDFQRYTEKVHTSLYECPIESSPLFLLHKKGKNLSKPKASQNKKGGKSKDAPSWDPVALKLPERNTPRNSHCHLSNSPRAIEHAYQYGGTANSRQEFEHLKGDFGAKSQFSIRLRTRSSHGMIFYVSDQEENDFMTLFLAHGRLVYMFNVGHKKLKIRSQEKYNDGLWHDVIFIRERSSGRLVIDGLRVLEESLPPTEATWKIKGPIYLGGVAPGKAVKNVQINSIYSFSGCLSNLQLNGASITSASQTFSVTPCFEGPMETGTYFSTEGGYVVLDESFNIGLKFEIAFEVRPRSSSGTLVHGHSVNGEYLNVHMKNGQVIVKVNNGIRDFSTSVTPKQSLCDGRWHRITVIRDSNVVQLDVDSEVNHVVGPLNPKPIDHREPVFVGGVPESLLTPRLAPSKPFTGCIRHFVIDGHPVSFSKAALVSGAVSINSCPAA

T2: mouse His-laminin-α4 (mouse, UniProt P97927 826-1816, limits assumed)
T2 construct: Bought His-tagged recombinant protein; also called Murine LAMA4; recombinant mouse LAMA4-His
T2 sequence (looked up): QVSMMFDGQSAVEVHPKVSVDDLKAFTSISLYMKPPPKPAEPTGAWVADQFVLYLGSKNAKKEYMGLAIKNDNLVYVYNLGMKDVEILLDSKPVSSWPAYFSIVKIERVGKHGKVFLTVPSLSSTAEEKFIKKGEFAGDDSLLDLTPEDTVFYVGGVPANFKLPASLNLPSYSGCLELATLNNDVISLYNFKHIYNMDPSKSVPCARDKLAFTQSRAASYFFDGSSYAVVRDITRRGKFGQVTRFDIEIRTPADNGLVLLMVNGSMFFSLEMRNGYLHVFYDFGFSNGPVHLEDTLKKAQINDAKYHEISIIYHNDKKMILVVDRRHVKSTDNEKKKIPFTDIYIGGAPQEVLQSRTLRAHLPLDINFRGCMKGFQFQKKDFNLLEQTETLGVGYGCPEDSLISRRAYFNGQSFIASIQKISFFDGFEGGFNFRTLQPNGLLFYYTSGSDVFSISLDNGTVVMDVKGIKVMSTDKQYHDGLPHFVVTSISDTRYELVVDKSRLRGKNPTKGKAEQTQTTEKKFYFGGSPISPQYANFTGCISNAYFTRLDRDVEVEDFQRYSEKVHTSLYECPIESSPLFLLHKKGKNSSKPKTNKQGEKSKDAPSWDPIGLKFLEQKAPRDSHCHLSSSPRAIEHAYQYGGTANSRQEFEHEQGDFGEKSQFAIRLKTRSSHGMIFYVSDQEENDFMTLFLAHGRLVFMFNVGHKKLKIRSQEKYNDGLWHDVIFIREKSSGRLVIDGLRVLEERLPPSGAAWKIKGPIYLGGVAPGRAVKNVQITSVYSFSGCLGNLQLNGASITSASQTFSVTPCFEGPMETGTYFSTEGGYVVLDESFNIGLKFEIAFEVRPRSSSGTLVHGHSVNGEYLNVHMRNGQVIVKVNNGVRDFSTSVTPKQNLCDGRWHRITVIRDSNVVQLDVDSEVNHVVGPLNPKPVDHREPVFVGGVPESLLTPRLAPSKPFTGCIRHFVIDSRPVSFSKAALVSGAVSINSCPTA

T3: human LAMA4 G domain (LG1-5) displayed on 293 cells (human, UniProt Q16363 830-1821)
T3 construct: the vector's tags and membrane anchor are not written here; also called LAMA4-displaying human 293 cells; full length
T3 sequence: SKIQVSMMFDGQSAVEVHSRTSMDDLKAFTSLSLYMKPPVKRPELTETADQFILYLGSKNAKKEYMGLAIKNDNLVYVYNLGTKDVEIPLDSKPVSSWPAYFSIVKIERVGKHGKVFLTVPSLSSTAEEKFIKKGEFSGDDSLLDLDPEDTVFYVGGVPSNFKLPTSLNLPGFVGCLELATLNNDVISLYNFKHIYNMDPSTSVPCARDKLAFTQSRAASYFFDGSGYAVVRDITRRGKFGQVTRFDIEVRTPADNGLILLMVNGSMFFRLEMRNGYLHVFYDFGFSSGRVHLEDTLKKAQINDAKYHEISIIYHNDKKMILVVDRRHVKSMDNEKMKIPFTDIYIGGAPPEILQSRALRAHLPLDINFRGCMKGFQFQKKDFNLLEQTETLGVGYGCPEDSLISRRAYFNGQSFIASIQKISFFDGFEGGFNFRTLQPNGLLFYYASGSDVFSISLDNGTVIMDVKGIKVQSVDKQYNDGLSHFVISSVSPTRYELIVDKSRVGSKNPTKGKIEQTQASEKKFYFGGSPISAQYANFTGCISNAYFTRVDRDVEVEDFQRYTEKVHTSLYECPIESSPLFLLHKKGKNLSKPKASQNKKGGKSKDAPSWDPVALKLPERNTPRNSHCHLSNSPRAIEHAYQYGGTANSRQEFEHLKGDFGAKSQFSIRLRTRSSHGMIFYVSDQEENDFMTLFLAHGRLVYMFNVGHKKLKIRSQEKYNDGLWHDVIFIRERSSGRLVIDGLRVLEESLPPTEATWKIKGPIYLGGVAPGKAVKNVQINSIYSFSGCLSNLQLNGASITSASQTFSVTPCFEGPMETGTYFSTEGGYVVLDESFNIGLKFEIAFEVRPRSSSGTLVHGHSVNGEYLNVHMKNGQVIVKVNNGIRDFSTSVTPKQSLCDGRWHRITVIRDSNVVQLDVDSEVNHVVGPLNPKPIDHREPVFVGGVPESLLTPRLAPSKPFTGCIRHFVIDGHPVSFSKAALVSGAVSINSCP

T4: human LAMA4 LG4-5 modules displayed on 293 cells (human, UniProt Q16363 1453-1821)
T4 construct: pDisplay construct on 293 cells; vector tags and anchor not written here
T4 sequence: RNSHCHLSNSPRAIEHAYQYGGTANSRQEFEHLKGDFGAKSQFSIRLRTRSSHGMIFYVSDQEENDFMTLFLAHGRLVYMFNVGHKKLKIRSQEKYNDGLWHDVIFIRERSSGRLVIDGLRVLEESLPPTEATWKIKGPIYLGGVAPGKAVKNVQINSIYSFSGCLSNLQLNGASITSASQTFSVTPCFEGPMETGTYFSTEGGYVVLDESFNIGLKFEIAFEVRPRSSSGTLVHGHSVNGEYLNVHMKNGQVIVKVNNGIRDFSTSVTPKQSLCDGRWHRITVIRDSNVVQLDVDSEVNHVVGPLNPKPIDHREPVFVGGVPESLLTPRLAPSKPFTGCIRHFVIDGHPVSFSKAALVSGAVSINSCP

B1: mouse monoclonal antibody 5A12 (antibody, V domains shown)
VH: QVQLQQPGAELVKPGASVKLSCKASGYTFTSYWMHWVKQRPGRGLEWIGRIDPNSGGTKHNEKFKSKATLTVDKPSSTAYMQLSSLTSEDSAVYYCAGSPSYYDYALHYAMDYWGQGTSVTVSS
VL: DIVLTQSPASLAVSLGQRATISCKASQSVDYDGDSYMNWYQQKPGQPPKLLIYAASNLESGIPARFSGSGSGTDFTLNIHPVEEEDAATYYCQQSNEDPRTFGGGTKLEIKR
notes: version 1 is written here; also called 5Al2
B2: chimeric 19C12 antibody (antibody, V domains shown)
VH: QVQLQQSGAELVKPGASVKISCKASGYAFSTYWMNWVKQRPGEGLEWIGQIYPGDGDTNYNGKFKGKATLTADKSSSTAYMQLSSLTSEDSAVYFCARSDGYYDYWGQGTTLTVSS
VL: NIVLTQSPASLAVSLGQRATISCRASESVDSYGTSFMHWYQQKPGQPPKLLICLASSLESGVPARFSGSGSRTDFTLTIDPVEADDAATYYCQQNNEDPPTFGAGTKLELKR
notes: Mouse 19C12 variable regions with human constant regions (captured by anti-human Fc, detected by anti-human secondary); also called chi19C12; 19C12 chi

Assays:
human His-laminin-α4 = target: T1, human His-laminin-α4; experiment: Biacore SPR
mouse His-laminin-α4 [1] = target: T2, mouse His-laminin-α4; experiment: Biacore SPR
mouse His-laminin-α4 [2] = target: T2, mouse His-laminin-α4; experiment: ELISA hMCAM-Fc capture blocking assay; antibody pre-incubated with mouse LAMA4-His; blocked partner: captured hMCAM-Fc
[3] = target: T3, human LAMA4 G domain (LG1-5) displayed …; experiment: LAMA4 pDisplay flow cytometric blocking assay on LAMA4-displaying 293 cells; blocked ligand: 650-conjugated mouse MCAM-Fc
recombinant laminin 411 [4] = target: T5, recombinant laminin 411 (human, UniProt P07942 22-1786; P11047 34-1609, limits assumed); experiment: hMCAM.CHO flow cytometric blocking assay; antibody pre-incubated with laminin 411; blocked partner: human MCAM on CHO cells
T5 construct: also called LAMA4 in complex with its gamma1 and beta1 chains
T5 sequence (P07942 22-1786 limits assumed, chain 2 of 2): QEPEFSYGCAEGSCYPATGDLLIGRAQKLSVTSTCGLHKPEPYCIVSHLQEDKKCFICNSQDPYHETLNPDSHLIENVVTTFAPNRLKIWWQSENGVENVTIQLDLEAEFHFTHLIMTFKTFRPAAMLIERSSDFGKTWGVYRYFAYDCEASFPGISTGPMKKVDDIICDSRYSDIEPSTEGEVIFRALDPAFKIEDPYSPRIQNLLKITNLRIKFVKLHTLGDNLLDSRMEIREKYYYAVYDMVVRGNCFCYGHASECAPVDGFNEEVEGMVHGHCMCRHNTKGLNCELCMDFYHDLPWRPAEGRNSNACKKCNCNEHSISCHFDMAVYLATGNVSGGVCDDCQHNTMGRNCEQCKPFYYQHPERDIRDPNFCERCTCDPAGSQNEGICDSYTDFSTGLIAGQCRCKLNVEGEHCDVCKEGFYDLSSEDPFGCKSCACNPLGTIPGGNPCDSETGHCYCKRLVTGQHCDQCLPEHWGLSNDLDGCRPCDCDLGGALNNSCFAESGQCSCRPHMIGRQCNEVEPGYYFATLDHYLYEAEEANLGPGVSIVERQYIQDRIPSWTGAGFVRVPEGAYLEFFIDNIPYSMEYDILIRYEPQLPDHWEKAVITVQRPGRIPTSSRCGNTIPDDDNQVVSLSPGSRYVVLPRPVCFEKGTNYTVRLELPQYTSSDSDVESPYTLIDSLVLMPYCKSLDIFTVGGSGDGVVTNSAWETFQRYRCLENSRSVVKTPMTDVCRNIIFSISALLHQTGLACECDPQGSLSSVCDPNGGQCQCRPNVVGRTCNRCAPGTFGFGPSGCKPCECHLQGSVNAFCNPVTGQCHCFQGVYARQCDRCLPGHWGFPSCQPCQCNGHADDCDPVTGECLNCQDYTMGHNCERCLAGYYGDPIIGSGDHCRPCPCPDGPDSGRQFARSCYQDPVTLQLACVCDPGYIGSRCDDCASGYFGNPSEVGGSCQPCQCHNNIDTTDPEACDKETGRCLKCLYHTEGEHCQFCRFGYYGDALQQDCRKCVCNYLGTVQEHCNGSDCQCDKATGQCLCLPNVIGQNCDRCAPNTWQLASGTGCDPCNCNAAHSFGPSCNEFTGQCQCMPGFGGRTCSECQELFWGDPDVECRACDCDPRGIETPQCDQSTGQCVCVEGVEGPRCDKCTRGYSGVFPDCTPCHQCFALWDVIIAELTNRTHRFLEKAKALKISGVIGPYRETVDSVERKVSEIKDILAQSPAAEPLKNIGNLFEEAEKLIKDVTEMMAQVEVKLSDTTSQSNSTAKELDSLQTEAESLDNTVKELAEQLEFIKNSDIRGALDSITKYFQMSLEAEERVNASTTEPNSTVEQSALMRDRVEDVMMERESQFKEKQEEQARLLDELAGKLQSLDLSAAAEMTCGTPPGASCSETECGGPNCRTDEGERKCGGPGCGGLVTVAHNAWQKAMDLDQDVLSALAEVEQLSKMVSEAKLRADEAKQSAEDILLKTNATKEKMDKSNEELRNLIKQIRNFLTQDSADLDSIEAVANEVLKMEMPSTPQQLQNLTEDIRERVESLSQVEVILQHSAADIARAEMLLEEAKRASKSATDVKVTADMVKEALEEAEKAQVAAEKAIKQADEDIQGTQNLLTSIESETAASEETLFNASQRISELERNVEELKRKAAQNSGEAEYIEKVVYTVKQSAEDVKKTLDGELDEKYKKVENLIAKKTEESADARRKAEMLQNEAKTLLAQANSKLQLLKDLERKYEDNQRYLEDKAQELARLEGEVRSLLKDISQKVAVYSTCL
T5 sequence (P11047 34-1609 limits assumed, chain 3 of 2): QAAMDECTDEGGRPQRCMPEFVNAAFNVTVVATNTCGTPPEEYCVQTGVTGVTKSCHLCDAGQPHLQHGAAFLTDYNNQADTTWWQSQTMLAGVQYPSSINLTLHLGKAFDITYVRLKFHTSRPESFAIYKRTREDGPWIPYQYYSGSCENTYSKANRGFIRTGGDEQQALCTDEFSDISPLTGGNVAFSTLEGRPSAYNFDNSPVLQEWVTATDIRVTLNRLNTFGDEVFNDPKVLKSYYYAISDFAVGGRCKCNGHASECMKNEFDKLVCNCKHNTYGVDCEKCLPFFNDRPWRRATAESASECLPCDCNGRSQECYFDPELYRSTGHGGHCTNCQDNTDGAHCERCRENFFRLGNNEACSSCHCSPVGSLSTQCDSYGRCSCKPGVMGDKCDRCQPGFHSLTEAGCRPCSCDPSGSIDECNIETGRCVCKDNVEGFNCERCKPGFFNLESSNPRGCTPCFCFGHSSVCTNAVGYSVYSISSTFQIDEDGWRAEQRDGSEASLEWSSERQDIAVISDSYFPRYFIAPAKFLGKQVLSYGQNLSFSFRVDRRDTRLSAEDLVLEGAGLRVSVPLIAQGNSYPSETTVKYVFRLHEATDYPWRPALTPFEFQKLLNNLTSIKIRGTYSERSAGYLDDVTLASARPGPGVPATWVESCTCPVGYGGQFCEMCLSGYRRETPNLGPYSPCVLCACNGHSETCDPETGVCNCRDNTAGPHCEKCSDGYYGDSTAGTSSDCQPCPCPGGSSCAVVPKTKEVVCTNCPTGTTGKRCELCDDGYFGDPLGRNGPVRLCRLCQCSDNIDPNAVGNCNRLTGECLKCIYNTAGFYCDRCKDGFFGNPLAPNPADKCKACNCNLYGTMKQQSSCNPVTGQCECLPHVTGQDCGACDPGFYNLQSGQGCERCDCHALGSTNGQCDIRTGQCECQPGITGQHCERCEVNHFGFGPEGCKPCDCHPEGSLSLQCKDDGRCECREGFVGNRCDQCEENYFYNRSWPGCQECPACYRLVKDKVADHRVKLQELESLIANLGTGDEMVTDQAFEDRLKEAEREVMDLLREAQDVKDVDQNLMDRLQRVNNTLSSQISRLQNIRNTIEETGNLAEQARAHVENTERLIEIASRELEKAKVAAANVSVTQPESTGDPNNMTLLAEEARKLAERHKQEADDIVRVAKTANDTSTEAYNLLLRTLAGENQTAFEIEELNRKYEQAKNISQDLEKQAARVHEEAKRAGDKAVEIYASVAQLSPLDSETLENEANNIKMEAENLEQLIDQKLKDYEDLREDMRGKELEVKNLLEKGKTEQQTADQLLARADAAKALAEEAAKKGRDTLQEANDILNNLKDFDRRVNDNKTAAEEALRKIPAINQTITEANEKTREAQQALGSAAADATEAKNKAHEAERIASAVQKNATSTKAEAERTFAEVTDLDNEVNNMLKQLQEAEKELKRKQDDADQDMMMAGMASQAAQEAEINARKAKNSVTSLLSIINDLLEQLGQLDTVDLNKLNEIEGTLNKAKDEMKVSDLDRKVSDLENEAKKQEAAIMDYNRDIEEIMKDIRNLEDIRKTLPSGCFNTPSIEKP
Procedure: The monoclonal antibodies against LAMA4 were tested for their ability to block the binding of LAMA4 to its ligand MCAM. IgG control antibody, 1C1, 5Al2, 5B5, 19C12, and 12D3 were pre-incubated with recombinant LAMA4 protein, LAMA4-positive healthy mouse brain tissue, or LAMA4-displaying human 293 cells. […] For the mouse brain tissue blocking assay, antibodies were used at concentrations of 2.5 ug/ml or 0.04 ug/ml.
(§1) Following two washes with FACS buffer (1% FBS in PBS), cells were resuspended with 650-conjugated anti-pan-laminin antibody (1:1000; Novus Biologicals) and incubated for 20 min at 4° C., and washed again. Cells were analyzed for pan-laminin reactivity by flow cytometry using standard procedures.

[5] = target: T4, human LAMA4 LG4-5 modules displayed on …; experiment: flow cytometry on 293 cells displaying LAMA4 G-domain variants, anti-human-650 secondary antibody; MFI
Procedure: The 19C12 variants chimeric 19C12, H1+chiL, and H2+chiL, and buffer alone were tested for their ability to block the binding of LAMA4 to its ligand MCAM (as shown in FIG. 11) and to bind LAMA4-displaying cells (full length, LG1-3, LG4-5, or untransfected control) (as shown in FIG. 12). […] To test LAMA4 binding capacity, serially diluted antibodies were pre-incubated with LAMA4-displaying human 293 cells, followed by anti-human-650 secondary antibody incubation. Fluorescent signal was assessed via flow cytometric analyses and plotted as mean fluorescence intensity (MFI).

recombinant laminin 411 [6] = target: T5, recombinant laminin 411; experiment: flow cytometric blocking assay; antibody pre-incubated with 650-labeled laminin 411; blocked partner: human MCAM on CHO cells; MFI
Procedure: The 19C12 variants chimeric 19C12, H2L3, H2L4, H2L6, H3L6, and isotype control were tested for their ability to block the binding of LAMA4 to its ligand MCAM (FIG. 15) and to bind LAMA4-displaying cells (FIG. 16). To test LAMA4 binding capacity, serially diluted antibodies were pre-incubated with LAMA4-displaying human 293 cells, followed by anti-human-650 secondary antibody incubation. […] Fluorescent signal was assessed via flow cytometric analyses and plotted as mean fluorescence intensity (MFI). All 19C12 variants retained their MCAM blocking and LAMA4 binding activity when compared with chimeric 19C12.
as §1

| Binder | Kd (human His-laminin-α4) [nM] | koff (human His-laminin-α4) [s⁻¹] | kon (human His-laminin-α4) [M⁻¹ s⁻¹] | Kd (mouse His-laminin-α4 [1]) [nM] | koff (mouse His-laminin-α4 [1]) [s⁻¹] | kon (mouse His-laminin-α4 [1]) [M⁻¹ s⁻¹] | IC50 (read off the curve) (mouse His-laminin-α4 [2]) [µg/mL] | IC50 (read off the curve) [3] [µg/mL] | IC50 (read off the curve) (recombinant laminin 411 [4]) [µg/mL] | binding result [5] | IC50 (read off the curve) (recombinant laminin 411 [6]) [µg/mL] |
| --- | --- | --- | --- | --- | --- | --- | --- | --- | --- | --- | --- |
| B1 | 10.9 | 0.00791 | 723000 | 10.3 | 0.00815 | 795000 | ~0.2 | ~0.1 | ~0.06 |  |  |
| B2 |  |  |  |  |  |  |  |  |  | no binding (tested: 5 ug/ml) | ~0.7 |
